Test results reported in publication doi:10.1101/438713.

Target: PvdJ-eGFP (Pseudomonas aeruginosa PAO1)
Assay: FRET or BRET

B1: PvdA-mCherry (enzyme)
chain: MTQATATAVVHDLIGVGFGPSNIALAIALQERAQAQGALEVLFLDKQGDYRWHGNTLVSQSELQISFLKDLVSLRNPTSPYSFVNYLHKHDRLVDFINLGTFYPCRMEFNDYLRWVASHFQEQSRYGEEVLRIEPMLSAGQVEALRVISRNADGEELVRTTRALVVSPGGTPRIPQVFRALKGDGRVFHHSQYLEHMAKQPCSSGKPMKIAIIGGGQSAAEAFIDLNDSYPSVQADMILRASALKPADDSPFVNEVFAPKFTDLIYSREHAERERLLREYHNTNYSVVDTDLIERIYGVFYRQKVSGIPRHAFRCMTTVERATATAQGIELALRDAGSGELSVETYDAVILATGYERQLHRQLLEPLAEYLGDHEIGRDYRLQTDERCKVAIYAQGFSQASHGLSDTLLSVLPVRAEEISGSLYQHLKPGTAARALHEHALAS
Q: With B1 as the binder, how does the shortening of the donor fluorescence lifetime against PvdJ-eGFP alone read?
A: 10 to 15%
